B1: COX4I1 (parent)
chain: FDKEWVAKQTKRMLDMKVNPIQGL

Variants of: B1
Assay: protein stability index of a GFP-peptide fusion (GPS, HEK-293T) (PSI 1-6); higher = more stable
Conditions: c terminus: a fixed tail appended
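Further: lentivirally expressed fusions sorted by FACS into six bins by GFP to DsRed ratio, PSI derived from sequencing read proportions per bin multiplied by bin number.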

Protein stability index: each site, then its substitutions
Q9: H 1.77; D 2.2; I 1.6; R 1.87; C 3.23; M 2.54; S 2.46; E 2.26; A 3.55; T 2.87; V 1.46; N 1.42; K 2.62; W 1.8; Y 2.14; P 2; L 2.08; F 1.54; G 2.65
K11: S 2.28; T 1.92; E 1.86; Y 3.38; V 2.58; Q 1.79; D 1.54; A 1.84; L 1.61; G 1.62; I 1.8; N 1.54; M 1.9; H 1.7; R 1.92; P 2.32; F 1.97; C 2.77; W 1.52
E4: Y 1.89; V 2.42; T 2.34; W 1.66
R12: T 1.54; I 1.96; V 2.27; K 1.81; N 1.36; F 2.17; A 1.88; E 2.59; Y 1.56; H 1.97; G 1.35; L 3.17; D 1.88; C 1.43; M 1.6; Q 2.84; W 1.65; S 3.04
K8: A 1.06; Q 1.18; H 1.77; T 1.48; R 2.42; P 2.33; F 1.99; L 2.31; C 2.68; G 1.87; W 3.04; D 2.29; N 1.38; E 2.35; V 1.84; M 1.88; Y 2.59; S 1.75
A7: R 2.45; T 1.76; S 1.11; N 1.65; W 1.77; Y 1.71; G 2.28; L 1.56; C 1.27; D 2.32; H 1.74; F 1.56; K 2.29; E 1.77; P 2.05; I 1.68; V 1.18; M 1.81; Q 1.84
W5: S 3.61; D 4.22; C 3.78; A 3.96; G 3.92; L 3; P 3.63; H 2.84; N 3.86; K 3.54; M 3.52; E 3.6; T 2.87; I 3.44; R 3.98; F 2.8; Y 3.22; V 4.17; Q 3.85
V6: N 1.79; H 2.06; M 1.93; Q 2.83; K 2.28; S 1.96; T 1.93; F 1.55; E 3.33; R 2.1; W 2.67; A 3.39; D 2.78; G 2.31; C 1.53; I 1.35; P 1.86; L 2.37; Y 1.6
M13: H 1.43; G 1.64; L 2.36; P 2.35; D 1.59; E 2.06; I 2.34; N 2.23; K 1.88; F 2.12; A 1.13; C 2.17; Q 2.99
T10: K 1.78; E 2.21; A 1.41; Y 1.6; I 2.82; G 2.67; C 1.7; R 2.35; W 1.82; D 1.82; M 1.91; L 1.24; S 1.08; Q 1.84; F 1.82; P 2; N 1.73; H 1.69; V 1.49
